B1: "Peptide-N(4)-(N-acetyl-beta-glucosaminyl)asparagine amidase" (Mus musculus), Q9JI78 (parent)
chain: MASATLGSSSSSASPAVAELCQNTPETFLEASKLLLTYADNILRNPSDEKYRSIRIGNTAFSTRLLPVRGAVECLFEMGFEEGETHLIFPKKASVEQLQKIRDLIAIERSSRLDGSSKKVQFSQHPAAAKLPLEQSEDPAGLIRHSGNQTGQLPSLPSAPMVVGDSTILKVLQSNIQHVQLYENPVLQEKALTCIPVSELKRKAQEKLFRARKLDKGTNVSDEDFLLLELLHWFKEEFFRWVNNIVCSKCGGETRSRDEALLPNDDELKWGAKNVENHYCDACQLSNRFPRYNNPEKLLETRCGRCGEWANCFTLCCRALGFEARYVWDYTDHVWTEVYSPSQQRWLHCDACEDVCDKPLLYEIGWGKKLSYIIAFSKDEVVDVTWRYSCKHDEVMSRRTKVKEELLRETINGLNKQRQLSLSESRRKELLQRIIVELVEFISPKTPRPGELGGRVSGSLAWRVARGETGLERKEILFIPSENEKISKQFHLRYDIVRDRYIRVSDNNINISGWENGVWKMESIFRKVEKDWNMVYLARKEGSSFAYISWKFECGSAGLKVDTVSIRTSSQSFESGSVRWKLRSETAQVNLLGDKNLRSYNDFSGATEVTLEAELSRGDGDVAWQHTQLFRQSLNDSGENGLEIIITFNDL

Variants of: B1
Settings: with tera_mouse Vcp

Row | effect of a mutation on the interaction | Variant
1 | disrupting interaction strength | N58D

Variants of: B1
Settings: with tera_mouse Vcp
Remark: another data set of the same source

Row | effect of a mutation on the interaction | Variant
2 | disrupting interaction strength | R55E

Reference: IntAct's records for PubMed 17496150
